Assay results published in patent publication US20240374747A1, “FUSION PROTEIN OF VHH ANTIBODY AND STREPTAVIDIN MUTANT” (The University of Tokyo, priority 2023, published 2024).
Where two headings read alike, the source gives them in different places.

Key:
[1] = pH conditions of dialysis buffer for tetramer formation (non-reducing electrophoresis, densitometry); assay type: physicochemical; settings: dialyzed with refolding buffer B (pH 8.0) to remove guanidine hydrochloride
[2] = SPR analysis of interaction between Anti-HER2 VHH-Cupid and Psyche-Duocarmycin (Biacore T200); assay type: binding
Description: The surface plasmon resonance (SPR) analysis was performed using a Biacore T200 (Cytiva). […] The association and dissociation rate constants were evaluated using Biacore T200 Evaluation Software version 3 (Cytiva) by bivalent analyte model, and KD values were calculated.

[3] = tested on: Her2-positive cells (KPL-4)
Description: Her2-positive cells (KPL-4) were seeded on a 96-well plate to result in a cell count of 1×10^4 cells/well and a culture solution amount of 50 μL/well and were then cultured overnight. […] A reagent was added in accordance with the dosage and administration described in the instruction manual, and the resulting cells were then incubated at 37° C. in a CO2 incubator for 1.5 hours. […] Thereafter, the control was set at 100%, and the cell proliferation percentage to the control under individual conditions was calculated.

[4] = pH conditions of dialysis buffer for tetramer formation (non-reducing electrophoresis, densitometry); assay type: physicochemical
Description: Then, the sample was put into dialysis tube and dialyzed with buffers (50 mM sodium phosphate, 400 mM arginine HCl, pH 4.0˜8.0). 100 μL of the sample after refolding was dialyzed at 25° C. for 1 hour using 30 mL of buffer and the Mini Dialysis Kit 1 kD (Cytiva). Thereafter, dialysis was performed at 4° C. for 18 hours with 30 mL of fresh buffer, followed by overnight dialysis at 4° C. with 30 mL of fresh buffer. The post-dialysis samples from each pH condition were analyzed by non-reducing electrophoresis and the result image was shown in FIG. 7. […] As shown in FIG. 7 and Table 2, the monomers were equal to or less than 8% and the tetramers were equal to or more than 92% in pH of 6.0 or less, whereas the percentage of monomers increased at a pH of 6.5 or more. At pH 8.0, the same as the pH of refolding buffer B, 81% of the monomers and 19% of the tetramers were present. […] The theoretical pIs of Anti-HER2 VHH and Cupid moieties were approximately 7.6 and 6.5, respectively. Therefore, it is preferable that a buffer for tetramer formation should be pH 6.0 or less to avoid aggregation induced by the Cupid moiety.

[5] = tested on: Her2-positive cells (KPL-4); assay type: cell-based
Description: Her2-positive cells (KPL-4) were seeded on a 96-well plate to result in a cell count of 1×10^3 cells/well and a culture solution amount of 50 μL/well and were then cultured overnight. […] After the dilution series had been prepared, 50μ of the complex was each added to the cells, and the cells are cultured for 6 to 7 days. […] A reagent was added in accordance with the dosage and administration described in the instruction manual, and the resulting cells were then incubated at 37° C. in a CO2 incubator for 1.5 hours. After that, the absorbance at 450 nm was measured, and the mean value was then calculated, followed by background correction. Thereafter, the control was set at 100%, and the cell proliferation percentage to the control under individual conditions was calculated.

B1: Anti-HER2 VHH-Cupid: fusion protein of an anti-HER2 VHH single-domain antibody (SEQ ID NO: 2), Gly-Ser linker and Cupid mutant streptavidin; forms a tetramer (protein)
chain: MQVQLQESGGGSVQAGGSLKLTCAASGYIFNSCGMGWYRQSPGRERELVSRISGDGDTWHKESVKGRFTISQDNVKKTLYLQMNSLKPEDTAVYFCAVCYNLETYWGQGTQVTVSSGGGGSGGGGSGGGGSAEAGITGTWSDQLGDTFIVTAGADGALTGTYENAVGGAESRYVLTGRYDSAPATDGSGTALGWTVAWKNNSKNAHSATTWSGQYVGGADAKINTQWLLTSGTTNANAWKSTLVGHDTFTKVKPSAASHHHHHH
modifications: tetramer
notes: forms a tetramer
Question: Which “oligomeric state after dialysis with refolding buffer B” value [1] does the source give for B1 here?
Answer: almost all of the Anti-HER2 VHH-Cupid were monomeric

Question: And the “association rate constant (Ka1)” value ([2]; Anti-HER2 VHH-Cupid captured via anti-histidine antibody, Psyche-Duocarmycin analyte 10 nM to 0.3125 nM, bivalent analyte model)?
Answer: 1.336×10^4 l/Ms

Question: What about the “binding activity to Psyche-Duocarmycin” value ([2]; SPR) of the same molecule?
Answer: had binding activity to Psyche-Duocarmycin

Question: And the “cytotoxic activity compared with FL2 as vector” value [3]?
Answer: stronger cytotoxic activity than FL2

Question: And the “Monomer band (%)” value ([4]; dialysis buffer pH 4.0)?
Answer: 4%

Question: What about the “Tetramer band (%)” value ([4]; dialysis buffer pH 4.0) of the same molecule?
Answer: 96%

Question: What about the “Monomer band (%)” value ([4]; dialysis buffer pH 5.0) of the same molecule?
Answer: 6%

Question: And the “Tetramer band (%)” value ([4]; dialysis buffer pH 5.0)?
Answer: 94%

Question: And the “Monomer band (%)” value ([4]; dialysis buffer pH 5.5)?
Answer: 8%

Question: And the “Tetramer band (%)” value ([4]; dialysis buffer pH 5.5)?
Answer: 92%

Question: And the “Monomer band (%)” value ([4]; dialysis buffer pH 6.0)?
Answer: 8%

Question: And the “Tetramer band (%)” value ([4]; dialysis buffer pH 6.0)?
Answer: 92%

Question: What about the “Monomer band (%)” value ([4]; dialysis buffer pH 6.5) of the same molecule?
Answer: 13%

Question: What about the “Tetramer band (%)” value ([4]; dialysis buffer pH 6.5) of the same molecule?
Answer: 87%

Question: And the “Monomer band (%)” value ([4]; dialysis buffer pH 7.0)?
Answer: 35%

Question: What about the “Tetramer band (%)” value ([4]; dialysis buffer pH 7.0) of the same molecule?
Answer: 65%

Question: What about the “Monomer band (%)” value ([4]; dialysis buffer pH 7.5) of the same molecule?
Answer: 77%

Question: And the “Tetramer band (%)” value ([4]; dialysis buffer pH 7.5)?
Answer: 23%

Question: And the “Monomer band (%)” value ([4]; dialysis buffer pH 8.0)?
Answer: 81%

Question: And the “Tetramer band (%)” value ([4]; dialysis buffer pH 8.0)?
Answer: 19%

Question: What about the “tetramer formation of the refolded sample” value ([4]; dialysis buffers pH 4.0-8.0, FIG. 7) of the same molecule?
Answer: formed tetramers in pH-dependent manner

Question: What about the percentage of monomers ([4]; pH of 6.0 or less) of the same molecule?
Answer: ≤ 8%

Question: What about the percentage of tetramers ([4]; pH of 6.0 or less) of the same molecule?
Answer: ≥ 92%

Question: And the “cytotoxic activity compared with FL2 as vector” value [5]?
Answer: stronger cytotoxic activity than FL2
